Source: PMC7343212, “Lactoferrin-Hexon Interactions Mediate CAR-Independent Adenovirus Infection of Human Respiratory Cells” (Journal of Virology, 2020)

Tests used:
Assay in all cases: SPR
[1] = target: HAdV-A31 hexon (human adenovirus A31 (strain 1315/63))
[2] = target: HAdV-B35 hexon (human adenovirus B35 (strain Holden))
[3] = target: HAdV-C5 hexon (human adenovirus C5 (strain Ad75)) (UniProt P04133)

With “human lactoferricin 1-49 (hLfcin1-49) (peptide)” the Kd [1] was 187000 nM, the Kd [2] was 22100 nM and the Kd [3] was 730 nM.

Work on “human lactoferrin (hLF) (natural protein)” yielded a Kd [1] of 827 nM, a koff [1] of 0.0101 s⁻¹ and a kon [1] of 12000 M⁻¹ s⁻¹. For the same substance, the Kd [2] was 151 nM, the koff [2] was 0.00354 s⁻¹ and the kon [2] was 25000 M⁻¹ s⁻¹. For the same substance, the Kd [3] was 29 nM, the koff [3] was 0.00154 s⁻¹ and the kon [3] was 53000 M⁻¹ s⁻¹.
